Data reported in US9625458B2, “Biosensor” (priority 2002, dated 2017).

Experiments:
[1] = Fluorescence emission spectra without and with saturating ligand (wavelength shift, ΔIstd, ΔRmax); details: unbound vs ligand-saturated; for ΔIstd: standard intensity change; for ΔRmax: standard ratiometric change
Description: (§1) Fluorimetry. All measurements were conducted with an SLM Aminco-Bowman series 2 fluorimeter, with sample stirring at 25° C. Fluorescence emission spectra were acquired with excitation and emission slit widths of 4 and 8 nm, respectively. Photomultiplier tube potential was maintained between 400 and 800 volts. Protein concentrations were in the range of 50 to 1000 nM. Fluorophore-specific excitation was at the following approximate wavelengths: tryptophan, 290 nm; acrylodan, 390 nm; fluorescein, 485 nm; pyrene, 340 nm; NBD and NBDE, 490 nm; JPW4039, 485 nm; JPW4042, 470 nm; JPW4045, 470 nm.
Assessment of fluorescent biosensor function. Fluorescence emission spectra of bPBP-fluorophore conjugates were recorded in the absence and presence of saturating ligand concentrations. Spectral changes were characterized by four parameters: wavelength shift (the difference between the wavelengths of emission maximum in the unbound and ligand-saturated states), direction of intensity change (increase or decrease in intensity at the wavelengths of maximum emission in the two states), standard intensity change (ΔIstd), and standard ratiometric change (ΔR). ΔIstd is defined as the normalized intensity change relative to the average intensity, determined at the wavelength mid-point between the two emission maxima:
[formula] where λstd=(λmax, unbound+λmax, saturated)/2 and I1, I2 are the fluorescence intensities at λstd of each spectrum respectively (FIG. 4A). ΔR is defined in terms of two emission bands, A1 ([λ1, λ2]) and A2 ([λ3, λ4]) (FIG. 4B):
[formula] where ^∘A1, […] the areas in the absence of ligand, and ^∞A1, ^∞A2 the areas in the presence of saturating ligand. A computer program was used to enumerate ΔR for all possible pairs of wavelength bands in the two spectra, to identify the optimal sensing condition, defined as the maximum value of ΔR. Adjustable parameters of the algorithm, and their values used for ΔRmax quantities reported here, are: step size (2 nm), step width (10 nm), minimum integration area limit (fraction of total: 0.1), and maximum integration area limit (fraction of total: 1).

[2] = Fe(III) affinity of Fe(III) BP from competition with Fe(III) chelates / Fe(III) citrate; type: binding; details: E57D mutation; assuming logK=10.25 for 1:1 Fe(III) citrate complex; unit inferred
Source text: Family of biosensors. A set of eleven bPBPs with widely varying ligand-binding specificities was selected for engineering biosensor function (Table 2). All were from E. coli except Fe(III) BP, which is from Haemophilus influenzae. Binding specificities and affinities of these proteins for their respective ligands have been characterized (references in Table 2). […] Most of these bPBPs bind at most two or three related ligands with high affinity (micromolar or better). […] Measured ligand dissociation constants in these proteins are typically in the range of 0.1 to 1 μM.
Cysteine point mutations were introduced by the PCR overlap method (Ho et al., Gene 77:51-59, 1989). Mutant proteins typically expressed as well as the wild type protein. […] In the case of Fe(III) BP, all mutations were constructed in the E57D background. […] This permitted straightforward determination of Fe(III) affinity by direct titration with Fe(III) citrate at nanomolar concentrations of Fe(III) BP.

[3] = Fluorimetric titration of Fe(III) BP (E57D) conjugates with Fe(III) citrate; type: binding; details: E57D background, read-out: Kd of Fe(III) BP conjugate
Description: as §1
Corrections were made for dilution of the protein and for background signal from buffer. Binding curves were fit to binding isotherms using equation 3 or 4, as appropriate.
Analyte affinity measurements. […] The emission wavelength monitored was that of maximum difference in intensity between the ligand-free and bound states. For each conjugate, fluorescence intensiometric observations were fit to a hyperbolic binding isotherm for a two-state model (Marvin et al., Proc. Natl. Acad. Sci. USA 94:4366-4371, 1997): […]

| Molecule | ΔIstd [1] | ΔRmax [1] | Kd [2] [µM] | Kd [3] [µM] |
| --- | --- | --- | --- | --- |
| ribose BP T135C JPW4042 (conjugate, UniProt P02925 26-296, looked up, variant T135C, JPW4042 dye conjugate) Ribose import binding protein …: KDTIALVVSTLNNPFFVSLKDGAQKEADKLGYNLVVLDSQNNPAKELANVQDLTVRGTKILLINPTDSDAVGNAVKMANQANIPVITLDRQATKGEVVSHIASDNVLGGKIAGDYIAKKAGEGAKVIELQGIAGCSAARERGEGFQQAVAAHKFNVLASQPADFDRIKGLNVMQNLLTAHPDVQAVFAQNDEMALGALRALQTAGKSDVMVVGFDGTPDGEKAVNDGKLAATIAQLPDQIGAKGVETADKVLKGEKVQAKYPVDLKLVVKQ | 0.02 | 0.35 | – | – |
| ribose BP T135C NBD (conjugate, UniProt P02925 26-296, looked up, variant T135C, NBD dye conjugate) Ribose import binding protein …: KDTIALVVSTLNNPFFVSLKDGAQKEADKLGYNLVVLDSQNNPAKELANVQDLTVRGTKILLINPTDSDAVGNAVKMANQANIPVITLDRQATKGEVVSHIASDNVLGGKIAGDYIAKKAGEGAKVIELQGIAGCSAARERGEGFQQAVAAHKFNVLASQPADFDRIKGLNVMQNLLTAHPDVQAVFAQNDEMALGALRALQTAGKSDVMVVGFDGTPDGEKAVNDGKLAATIAQLPDQIGAKGVETADKVLKGEKVQAKYPVDLKLVVKQ | 0.08 | 0.22 | – | – |
| ribose BP T135C Acrylodan (conjugate, UniProt P02925 26-296, looked up, variant T135C, acrylodan conjugate) Ribose import binding protein …: KDTIALVVSTLNNPFFVSLKDGAQKEADKLGYNLVVLDSQNNPAKELANVQDLTVRGTKILLINPTDSDAVGNAVKMANQANIPVITLDRQATKGEVVSHIASDNVLGGKIAGDYIAKKAGEGAKVIELQGIAGCSAARERGEGFQQAVAAHKFNVLASQPADFDRIKGLNVMQNLLTAHPDVQAVFAQNDEMALGALRALQTAGKSDVMVVGFDGTPDGEKAVNDGKLAATIAQLPDQIGAKGVETADKVLKGEKVQAKYPVDLKLVVKQ | 0.31 | 6.26 | – | – |
| ribose BP T135C Fluorescein (conjugate, UniProt P02925 26-296, looked up, variant T135C, fluorescein conjugate) Ribose import binding protein …: KDTIALVVSTLNNPFFVSLKDGAQKEADKLGYNLVVLDSQNNPAKELANVQDLTVRGTKILLINPTDSDAVGNAVKMANQANIPVITLDRQATKGEVVSHIASDNVLGGKIAGDYIAKKAGEGAKVIELQGIAGCSAARERGEGFQQAVAAHKFNVLASQPADFDRIKGLNVMQNLLTAHPDVQAVFAQNDEMALGALRALQTAGKSDVMVVGFDGTPDGEKAVNDGKLAATIAQLPDQIGAKGVETADKVLKGEKVQAKYPVDLKLVVKQ | 0.18 | 1.79 | – | – |
| Fe(III) BP E57D: Fe(III) BP with Glu57 substituted by Asp to weaken Fe(III) affinity (protein, UniProt P35755 24-332, looked up, variant E57D) Iron-utilization periplasmic …: DITVYNGQHKEAATAVAKAFEQETGIKVTLNSGKSEQLAGQLKEEGDKTPADVFYTDQTATFADLSEAGLLAPISEQTIQQTAQKGVPLAPKKDWIALSGRSRVVVYDHTKLSEKDMEKSVLDYATPKWKGKIGYVSTSGAFLEQVVALSKMKGDKVALNWLKGLKENGKLYAKNSVALQAVENGEVPAALINNYYWYNLAKEKGVENLKSRLYFVRHQDPGALVSYSGAAVLKASKNQAEAQKFVDFLASKKGQEALVAARAEYPLRADVVSPFNLEPYEKLEAPVVSATTAQDKEHAIKLIEEAGLK | – | – | ~0.03 | – |
| Fe(III) BP E203C-acrylodan (conjugate, UniProt P35755 24-332, looked up, variant E203C, acrylodan label) Iron-utilization periplasmic …: DITVYNGQHKEAATAVAKAFEQETGIKVTLNSGKSEQLAGQLKEEGDKTPADVFYTEQTATFADLSEAGLLAPISEQTIQQTAQKGVPLAPKKDWIALSGRSRVVVYDHTKLSEKDMEKSVLDYATPKWKGKIGYVSTSGAFLEQVVALSKMKGDKVALNWLKGLKENGKLYAKNSVALQAVENGEVPAALINNYYWYNLAKCKGVENLKSRLYFVRHQDPGALVSYSGAAVLKASKNQAEAQKFVDFLASKKGQEALVAARAEYPLRADVVSPFNLEPYEKLEAPVVSATTAQDKEHAIKLIEEAGLK | – | – | – | ~138 |
